# Measurements: the supplement of paper PMC9732359
# ± gives the uncertainty stated by the source.
# Assay: protein stability index of a GFP-peptide fusion (yeast GPS) (PSI 1-4); higher = more stable; sorted into four equal gates, so the index is relative within each strain
# Method in brief: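 Each library plasmid carries Cherry plus GFP with a tiled 17-residue yeast protein peptide fused downstream, and the pooled library was carried in yeast. Mid-log cultures in leucine-free medium were sorted into four equal gates by GFP/Cherry ratio. Reads from Illumina sequencing of PCR-amplified plasmids from each gate were assigned to strains by barcodes. Per peptide, the protein stability index was computed as the summed products of gate read frequency and gate number.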
Sequence,protein stability index (doa10∆),protein stability index (pdr5∆),protein stability index (san1∆),protein stability index (ubr1∆)
ALLQRLKTNGKQNNKDF [MTW1],2.97 ± 0.1,3.33 ± 0.14,3.04 ± 0.13,2.28 ± 0.091
TISECNLYDDVKCWSKF [MED1],2.27 ± 0.093,2.34 ± 0.2,3.38 ± 0.071,3.14 ± 0.12
KDSLDNTFVTRLNNVFV [RPS4A],3.02 ± 0.11,3.02 ± 0.078,2.95 ± 0.085,2.95 ± 0.062
SKKKKNIKKKDTKDALS [RPC53],3.3 ± 0.17,3.5 ± 0.14,3.21 ± 0.089,3.3 ± 0.21
TLDNPLLVDKDANGVSL [YJL039C/NUP192],3.17 ± 0.057,3.12 ± 0.048,3.08 ± 0.038,3.13 ± 0.035
LHLDYNFNLKPTKTLTT [PRP8],2.45 ± 0.034,2.7 ± 0.037,2.68 ± 0.039,2.5 ± 0.03
LIMALLQFRPAPMYILD [SMC2],2.47 ± 0.15,1.12 ± 0.059,1.32 ± 0.26,1.06 ± 0.046
QYDFKAVLEENDENDDE [RPN14],3.04 ± 0.11,3.24 ± 0.075,3.05 ± 0.076,2.89 ± 0.055
DNNNTTNNDSNNKNNSI [MED2],2.83 ± 0.049,2.86 ± 0.045,2.96 ± 0.038,2.45 ± 0.034
KKLELPKYIDELKTRDA [SWP82],3.03 ± 0.097,3.39 ± 0.092,2.78 ± 0.077,3.48 ± 0.071
NTIGSVHGKAPMLMANN [SSN3],1.54 ± 0.18,1.54 ± 0.11,1.48 ± 0.19,1.89 ± 0.19
RLEEESSWQIYSDENDP [RRP4],,2.93 ± 0.16,2.93 ± 0.24,3.53 ± 0.16
EDDLVGVVQMVTDNKTP [TAF14],2.72 ± 0.15,2.52 ± 0.19,2.84 ± 0.091,
NVIKTGIRIISLTYKKI [RPN3],1.83 ± 0.1,2.25 ± 0.081,1.99 ± 0.12,2.2 ± 0.042
NFEAALFAKSSSKKEYM [GAL11],1.99 ± 0.085,2.52 ± 0.084,2.17 ± 0.1,2.67 ± 0.058
EITHPPSTTDDENGDKN [SWI3],3.09 ± 0.074,3.07 ± 0.072,3.19 ± 0.055,3.31 ± 0.061
EKFPNDVKLLNPIDIKR [RPP1],2.91 ± 0.062,2.97 ± 0.041,3.14 ± 0.038,3.01 ± 0.039
KIHSILPVMESLDSCTA [YJR042W/NUP85],2.24 ± 0.09,2.23 ± 0.079,2 ± 0.13,2.24 ± 0.068
SRSSSKNVNIEDITEPK [ESC2],2.92 ± 0.086,3 ± 0.082,2.67 ± 0.086,2.98 ± 0.15
DVAAKCKEVGITAVHVK [RPS14A],2.56 ± 0.057,2.81 ± 0.065,2.72 ± 0.062,2.62 ± 0.041

Sequence,protein stability index (doa10∆),protein stability index (pdr5∆),protein stability index (san1∆),protein stability index (ubr1∆)
RNSLETKLTTCKRELAF [YIL149C/MLP2],2.09 ± 0.068,1.99 ± 0.077,1.88 ± 0.09,2.19 ± 0.053
DTSTQAYEEEEENEDND [NUT1],3.24 ± 0.13,3.5 ± 0.17,3.54 ± 0.18,3.39 ± 0.12
MNERDWRILKEDYAIVT [PRP28],3.42 ± 0.22,3.16 ± 0.23,,
THNSYEKACQVLKYMLL [RPN6],2.18 ± 0.076,2.44 ± 0.073,2.23 ± 0.087,3.26 ± 0.071
KQIIVTRKAMLDPLEVH [PRP8],3.11 ± 0.094,3.13 ± 0.071,3.16 ± 0.062,3.05 ± 0.055
HDAIFSIYKYIHLNELL [SNF12],2.31 ± 0.051,2.43 ± 0.046,1.95 ± 0.074,2.01 ± 0.038
STFQTRRRRLKKVEEEE [RPB4],3.33 ± 0.15,3.52 ± 0.12,,3.36 ± 0.14
PPQDAEGWFYKRAASVA [RPS19A],2.9 ± 0.27,1.42 ± 0.11,1.53 ± 0.14,1.56 ± 0.11
MSISLESSKALADSLDR [DIS3],2.53 ± 0.067,2.8 ± 0.074,2.52 ± 0.096,2.45 ± 0.071
TNNDSNNKNNSITTGND [MED2],2.69 ± 0.1,2.64 ± 0.057,2.7 ± 0.081,1.87 ± 0.043
ETDEYISYTSHIEGVVI [RPN1],3.13 ± 0.1,3.44 ± 0.17,,3.08 ± 0.08
VEKTLLSDVAFYVQDVY [RPO31],2.11 ± 0.22,3.14 ± 0.23,,2.49 ± 0.15
QELGFCELLKLTNEDPP [SSN2],3 ± 0.12,3.12 ± 0.069,2.83 ± 0.1,3.02 ± 0.066
LKAAFVAIGNTYGFLTP [RPS2],2.13 ± 0.072,2.27 ± 0.048,2.07 ± 0.095,2.55 ± 0.042
RLVIKEALVERRRAFKR [RPB4],3.13 ± 0.29,2.67 ± 0.14,2.8 ± 0.22,
DDLQSSVIPEVDREAML [YCG1],2.63 ± 0.085,2.71 ± 0.081,2.48 ± 0.12,2.4 ± 0.078
SYAGISTDKLVQCHGSF [SIR2],2.57 ± 0.12,2.76 ± 0.11,2.78 ± 0.13,2.98 ± 0.092
EINTALNTLLVTSADSN [SWI1],2.05 ± 0.065,2.16 ± 0.048,2.38 ± 0.064,1.74 ± 0.065
FELVHHFFQIDGFNKTF [YML103C/NUP188],2.03 ± 0.075,2.24 ± 0.091,2.42 ± 0.074,2.36 ± 0.065
